# What was measured:
# [1] = tested on: HeLa Kyoto; experiment: thermal stability score vs G1/S (z-score of summed log2 fold changes over temperatures); higher = more thermally stable than in G1/S
# [2] = tested on: HeLa Kyoto; experiment: solubility change mitosis vs G1/S (difference of NP-40 vs SDS log2 ratios) (log2 ratio difference); higher = more soluble in mitosis
# [3] = tested on: HeLa Kyoto; experiment: solubility in G1/S (NP-40 vs SDS abundance) (log2 ratio); higher = more soluble; conditions: cell cycle stage: G1/S
# [4] = tested on: HeLa Kyoto; experiment: melting temperature (median over replicates), in situ; higher = more thermally stable
# [5] = cell cycle stage: early G1 (4.5 h after nocodazole release)
# 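For melting temperature (median over replicates), in situ in this document: HeLa Kyoto cells synchronized by double thymidine or nocodazole block, proteins quantified by TMT10plex mass spectrometry, three independent biological replicates.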
# 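For solubility change mitosis vs G1/S (difference of NP-40 vs SDS log2 ratios) in this document: synchronized HeLa Kyoto cells (double thymidine block for G1/S, nocodazole release for mitosis), protein amounts in NP-40 versus SDS lysates quantified by mass spectrometry, three biological replicates.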
# 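For solubility in G1/S (NP-40 vs SDS abundance) in this document: HeLa Kyoto cells arrested at G1/S by double thymidine block, proteins quantified by TMT10plex mass spectrometry in mild NP-40 versus SDS extracts, three biological replicates.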
# 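For thermal stability score vs G1/S (z-score of summed log2 fold changes over temperatures) in this document: synchronized HeLa Kyoto cells, proteins quantified by TMT10plex mass spectrometry, three biological replicates, mitosis taken 0.5 h after nocodazole release, G1/S directly after double thymidine block.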
Sequence,"thermal stability score [1, 5]",thermal stability score ([1]; cell cycle stage: mitosis),solubility change mitosis (log2) [2],solubility in G1/S (log2) [3],melting temperature ([4]; cell cycle stage: G1/S) [°C],melting temperature ([4]; cell cycle stage: mitosis) [°C]
MAERRRHKKRIQEVGEPSKEEKAVAKYLRFNCPTKSTNMMGHRVDYFIASKAVDCLLDSKWAKAKKGEEALFTTRESVVDYCNRLLKKQFFHRALKVMKMKYDKDIKKEKDKGKAESGKEEDKKSKKENIKDEKTKKEKEKKKDGEKEESKKEETPGTPKKKETKKKFKLEPHDDQVFLDGNEVYVWIYDPVHFKTFVMGLILVIAVIAATLFPLWPAEMRVGVYYLSVGAGCFVASILLLAVARCILFLIIWLITGGRHHFWFLPNLTADVGFIDSFRPLYTHEYKGPKADLKKDEKSETKKQQKSDSEEKSDSEKKEDEEGKVGPGNHGTEGSGGERHSDTDSDRREDDRSQHSSGNGNDFEMITKEELEQQTDGDCEEDEEEENDGETPKSSHEKS [SEC62],-4.12,-4.37,0.0142,-0.134,55.5,55.4
MAESPTEEAATAGAGAAGPGASSVAGVVGVSGSGGGFGPPFLPDVWAAAAAAGGAGGPGSGLAPLPGLPPSAAAHGAALLSHWDPTLSSDWDGERTAPQCLLRIKRDIMSIYKEPPPGMFVVPDTVDMTKIHALITGPFDTPYEGGFFLFVFRCPPDYPIHPPRVKLMTTGNNTVRFNPNFYRNGKVCLSILGTWTGPAWSPAQSISSVLISIQSLMTENPYHNEPGFEQERHPGDSKNYNECIRHETIRVAVCDMMEGKCPCPEPLRGVMEKSFLEYYDFYEVACKDRLHLQGQTMQDPFGEKRGHFDYQSLLMRLGLIRQKVLERLHNENAEMDSDSSSSGTETDLHGSLRV [UBE2Z],-0.171,-0.398,-0.169,0.403,52.7,52.8
MAETSEEVAVLVQRVVKDITNAFRRNPHIDEIGLIPCPEARYNRSPIVLVENKLGVESWCVKFLLPYVHNKLLLYRTRKQWLNRDELIDVTCTLLLLNPDFTTAWNVRKELILSGTLNPIKDLHLGKLALTKFPKSPETWIHRRWVLQQLIQETSLPSFVTKGNLGTIPTERAQRLIQEEMEVCGEAAGRYPSNYNAWSHRIWVLQHLAKLDVKILLDELSSTKHWASMHVSDHSGFHYRQFLLKSLISQTVIDSSVMEQNPLRSEPALVPPKDEEAAVSTEEPRINLPHLLEEEVEFSTDLIDSYPGHETLWCHRRHIFYLQHHLNAGSQLSQAMEVDGLNDSSKQGYSQETKRLKRTPVPDSLGLEMEHRFIDQVLSTCRNVEQARFASAYRKWLVTLSQ [PTAR1],-1.63,-2.24,-0.125,0.0716,53,52.1
MAFLKLRDQPSLVQAIFNGDPDEVRALIFKKEDVNFQDNEKRTPLHAAAYLGDAEIIELLILSGARVNAKDSKWLTPLHRAVASCSEEAVQVLLKHSADVNARDKNWQTPLHIAAANKAVKCAEALVPLLSNVNVSDRAGRTALHHAAFSGHGEMVKLLLSRGANINAFDKKDRRAIHWAAYMGHIEVVKLLVSHGAEVTCKDKKSYTPLHAAASSGMISVVKYLLDLGVDMNEPNAYGNTPLHVACYNGQDVVVNELIDCGAIVNQKNEKGFTPLHFAAASTHGALCLELLVGNGADVNMKSKDGKTPLHMTALHGRFSRSQTIIQSGAVIDCEDKNGNTPLHIAARYGHELLINTLITSGADTAKRGIHGMFPLHLAALSGFSDCCRKLLSSGFDIDTPDDFGRTCLHAAAAGGNLECLNLLLNTGADFNKKDKFGRSPLHYAAANCNYQCLFALVGSGASVNDLDERGCTPLHYAATSDTDGKCLEYLLRNDANPGIRDKQGYNAVHYSAAYGHRLCLQLIASETPLDVLMETSGTDMLSDSDNRATISPLHLAAYHGHHQALEVLVQSLLDLDVRNSSGRTPLDLAAFKGHVECVDVLINQGASILVKDYILKRTPIHAAATNGHSECLRLLIGNAEPQNAVDIQDGNGQTPLMLSVLNGHTDCVYSLLNKGANVDAKDKWGRTALHRGAVTGHEECVDALLQHGAKCLLRDSRGRTPIHLSAACGHIGVLGALLQSAASMDANPATADNHGYTALHWACYNGHETCVELLLEQEVFQKTEGNAFSPLHCAVINDNEGAAEMLIDTLGASIVNATDSKGRTPLHAAAFTDHVECLQLLLSHNAQVNSVDSTGKTPLMMAAENGQTNTVEMLVSSASAELTLQDNSKNTALHLACSKGHETSALLILEKITDRNLINATNAALQTPLHVAARNGLTMVVQELLGKGASVLAVDENGYTPALACAPNKDVADCLALILATMMPVSSSSPLSSLTFNAINRYTNTSKTVSFEALPIMRNEPSSYCSFNNIGGEQEYLYTDVDELNDSDSETY [ANKRD28],-0.536,-1.19,-0.133,-0.288,51.2,50.8
MAFPHRPDAPELPDFSMLKRLARDQLIYLLEQLPGKKDLFIEADLMSPLDRIANVSILKQHEVDKLYKVENKPALSSNEQLCFLVRPRIKNMRYIASLVNADKLAGRTRKYKVIFSPQKFYACEMVLEEEGIYGDVSCDEWAFSLLPLDVDLLSMELPEFFRDYFLEGDQRWINTVAQALHLLSTLYGPFPNCYGIGRCAKMAYELWRNLEEEEDGETKGRRPEIGHIFLLDRDVDFVTALCSQVVYEGLVDDTFRIKCGSVDFGPEVTSSDKSLKVLLNAEDKVFNEIRNEHFSNVFGFLSQKARNLQAQYDRRRGMDIKQMKNFVSQELKGLKQEHRLLSLHIGACESIMKKKTKQDFQELIKTEHALLEGFNIRESTSYIEEHIDRQVSPIESLRLMCLLSITENGLIPKDYRSLKTQYLQSYGPEHLLTFSNLRRAGLLTEQAPGDTLTAVESKVSKLVTDKAAGKITDAFSSLAKRSNFRAISKKLNLIPRVDGEYDLKVPRDMAYVFGGAYVPLSCRIIEQVLERRSWQGLDEVVRLLNCSDFAFTDMTKEDKASSESLRLILVVFLGGCTFSEISALRFLGREKGYRFIFLTTAVTNSARLMEAMSEVKA [VPS33B],0.623,0.549,-0.189,-0.121,49.9,49.4
MAFQKAVKGTILVGGGALATVLGLSQFAHYRRKQMNLAYVKAADCISEPVNREPPSREAQLLTLQNTSEFDILVIGGGATGSGCALDAVTRGLKTALVERDDFSSGTSSRSTKLIHGGVRYLQKAIMKLDIEQYRMVKEALHERANLLEIAPHLSAPLPIMLPVYKWWQLPYYWVGIKLYDLVAGSNCLKSSYVLSKSRALEHFPMLQKDKLVGAIVYYDGQHNDARMNLAIALTAARYGAATANYMEVVSLLKKTDPQTGKVRVSGARCKDVLTGQEFDVRAKCVINATGPFTDSVRKMDDKDAAAICQPSAGVHIVMPGYYSPESMGLLDPATSDGRVIFFLPWQKMTIAGTTDTPTDVTHHPIPSEEDINFILNEVRNYLSCDVEVRRGDVLAAWSGIRPLVTDPKSADTQSISRNHVVDISESGLITIAGGKWTTYRSMAEDTINAAVKTHNLKAGPSRTVGLFLQGGKDWSPTLYIRLVQDYGLESEVAQHLAATYGDKAFEVAKMASVTGKRWPIVGVRLVSEFPYIEAEVKYGIKEYACTAVDMISRRTRLAFLNVQAAEEALPRIVELMGRELNWDDYKKQEQLETARKFLYYEMGYKSRSEQLTDRSEISLLPSDIDRYKKRFHKFDADQKGFITIVDVQRVLESINVQMDENTLHEILNEVDLNKNGQVELNEFLQLMSAIQKGRVSGSRLAILMKTAEENLDRRVPIPVDRSCGGL [GPD2],-2.62,-2.93,-0.0945,0.104,59.2,59

# From the supplement of paper PMC5998384
